Assay results as given in publication PMC8547449 (2021).

Target: T1, C4b-binding protein (human, UniProt P04003 49-597; P20851 18-252)
T1 chain 1: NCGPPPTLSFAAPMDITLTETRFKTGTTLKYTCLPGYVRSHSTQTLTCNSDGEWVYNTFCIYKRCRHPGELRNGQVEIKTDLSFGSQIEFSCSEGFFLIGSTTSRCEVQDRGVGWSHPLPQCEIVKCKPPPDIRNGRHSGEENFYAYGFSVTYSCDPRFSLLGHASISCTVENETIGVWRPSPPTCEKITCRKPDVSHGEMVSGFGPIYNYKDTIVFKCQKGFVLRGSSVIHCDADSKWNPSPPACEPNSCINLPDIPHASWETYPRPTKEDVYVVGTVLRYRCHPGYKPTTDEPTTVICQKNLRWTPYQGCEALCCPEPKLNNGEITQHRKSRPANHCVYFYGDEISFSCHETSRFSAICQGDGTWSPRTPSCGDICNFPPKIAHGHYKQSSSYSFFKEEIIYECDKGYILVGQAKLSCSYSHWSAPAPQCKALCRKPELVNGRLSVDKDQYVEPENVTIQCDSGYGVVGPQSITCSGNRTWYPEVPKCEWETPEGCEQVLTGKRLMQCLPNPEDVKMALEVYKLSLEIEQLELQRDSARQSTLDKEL
T1 chain 2: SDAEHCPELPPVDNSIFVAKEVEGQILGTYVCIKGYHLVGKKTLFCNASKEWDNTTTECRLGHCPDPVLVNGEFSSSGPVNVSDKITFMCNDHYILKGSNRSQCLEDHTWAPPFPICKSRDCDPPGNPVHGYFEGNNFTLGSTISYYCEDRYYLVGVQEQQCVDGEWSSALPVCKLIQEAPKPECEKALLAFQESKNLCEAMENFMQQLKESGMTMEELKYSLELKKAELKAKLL
Experiment: SPR

B1: M28 protein, recombinant, affinity tag removed by TEV protease (natural protein)
chain: AESPKSTETSANGADKLADAYNTLLTEHEKLRDEYYTLIDAKEEEPRYKALRGENQDLREKEGKYQDKIKKLEEKEKNLEKKSEDVERHYLKKLDQEHKEQEERQKNLEELERQSQREIDKRYQEQLQKQQQLETEKQISEASRKSLSRDLEASRAAKKDLEAEHQKLKEEKQISDASRQGLSRDLEASRAAKKDLEAEHQKLKEEKQISDASRQGLSRDLEASREAKKKVEADLAEANSKLQALEKLNKELEEGKKLSEKEKAELQARLEAEAKALKEQLAKQAEELAKLKGNQTPNAKVAPQANRSRSAMTQQKR
- Kd: 0.188 nM
